Biological target: T1, Lsb4, P32793
T1 sequence (P32793 402-468, looked up): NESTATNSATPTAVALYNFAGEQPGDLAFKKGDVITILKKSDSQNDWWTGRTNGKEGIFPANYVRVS
Assay: SPOT array
Details: median of control spots 397

Binder	SPOT intensity
NFKRLLPRDPSEKSS	0
LRWRHKFFLPAIAAI	0
YVRRRPRVRLEPLLS	3

Biological target: Bem1-2, P29366
Assay: SPOT array
Details: median of control spots 4347

Bem1-2, P29366, sequence (P29366 139-227): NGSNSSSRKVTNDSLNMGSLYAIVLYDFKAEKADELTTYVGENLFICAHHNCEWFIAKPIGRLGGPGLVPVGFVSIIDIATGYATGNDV

Binder	SPOT intensity
NFKRLLPRDPSEKSS	11
LRWRHKFFLPAIAAI	1
YVRRRPRVRLEPLLS	15

Biological target: T2, Lsb1, P53281
T2 sequence (P53281 45-122, looked up): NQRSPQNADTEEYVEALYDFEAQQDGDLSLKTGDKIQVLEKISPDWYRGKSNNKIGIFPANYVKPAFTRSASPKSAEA
Assay: SPOT array
Details: median of control spots 388

Binder	SPOT intensity
NFKRLLPRDPSEKSS	0
LRWRHKFFLPAIAAI	0
YVRRRPRVRLEPLLS	13

Biological target: T3, Fus1, P11710
T3 sequence (P11710 432-512, looked up): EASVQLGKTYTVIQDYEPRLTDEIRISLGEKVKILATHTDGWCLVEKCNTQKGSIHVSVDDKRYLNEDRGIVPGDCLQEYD
Assay: SPOT array
Details: median of control spots 1200

Binder	SPOT intensity
NFKRLLPRDPSEKSS	145
LRWRHKFFLPAIAAI	53
YVRRRPRVRLEPLLS	19

Biological target: T4, Pex13, P80667
T4 sequence (P80667 295-386, looked up): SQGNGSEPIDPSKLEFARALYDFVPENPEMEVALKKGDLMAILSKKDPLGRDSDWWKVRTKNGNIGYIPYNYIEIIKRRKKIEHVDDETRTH
Assay: SPOT array
Details: median of control spots 1341

Binder	SPOT intensity
NFKRLLPRDPSEKSS	7
LRWRHKFFLPAIAAI	3
YVRRRPRVRLEPLLS	2

Biological target: T5, Abp1, P15891
T5 sequence (P15891 535-592, looked up): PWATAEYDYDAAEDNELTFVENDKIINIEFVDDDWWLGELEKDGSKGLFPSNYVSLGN
Assay: SPOT array
Details: median of control spots 935

Binder	SPOT intensity
NFKRLLPRDPSEKSS	41
LRWRHKFFLPAIAAI	0
YVRRRPRVRLEPLLS	101

Biological target: T6, Cdc25, P04821
T6 sequence (P04821 50-136, looked up): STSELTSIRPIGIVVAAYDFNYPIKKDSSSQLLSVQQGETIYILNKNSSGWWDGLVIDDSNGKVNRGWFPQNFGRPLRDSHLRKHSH
Assay: SPOT array
Details: median of control spots 969

Binder	SPOT intensity
NFKRLLPRDPSEKSS	50
LRWRHKFFLPAIAAI	26
YVRRRPRVRLEPLLS	156

Biological target: T7, Bbc1, P47068
T7 sequence (P47068 1-78, looked up): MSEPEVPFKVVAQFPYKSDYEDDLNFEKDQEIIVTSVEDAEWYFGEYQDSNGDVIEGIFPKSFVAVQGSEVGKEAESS
Assay: SPOT array
Details: median of control spots 796

Binder	SPOT intensity
NFKRLLPRDPSEKSS	51
LRWRHKFFLPAIAAI	18
YVRRRPRVRLEPLLS	273

Biological target: T8, Hse1, P38753
T8 sequence (P38753 208-285, looked up): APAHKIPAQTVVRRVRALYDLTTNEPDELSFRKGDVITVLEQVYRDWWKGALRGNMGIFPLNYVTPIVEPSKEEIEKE
Assay: SPOT array
Details: median of control spots 1727

Binder	SPOT intensity
NFKRLLPRDPSEKSS	72
LRWRHKFFLPAIAAI	21
YVRRRPRVRLEPLLS	54

Biological target: T9, Sla1-2, P32790
T9 sequence (P32790 60-140, looked up): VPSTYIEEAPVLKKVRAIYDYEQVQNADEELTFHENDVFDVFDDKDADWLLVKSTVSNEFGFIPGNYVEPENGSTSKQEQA
Assay: SPOT array
Details: median of control spots 712

Binder	SPOT intensity
NFKRLLPRDPSEKSS	0
LRWRHKFFLPAIAAI	0
YVRRRPRVRLEPLLS	3

Biological target: T10, Cyk3, Q07533
T10 sequence (Q07533 1-83, looked up): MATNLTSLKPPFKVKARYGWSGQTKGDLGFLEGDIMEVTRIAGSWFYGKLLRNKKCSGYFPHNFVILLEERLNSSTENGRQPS
Assay: SPOT array
Details: median of control spots 1451

Binder	SPOT intensity
NFKRLLPRDPSEKSS	3
LRWRHKFFLPAIAAI	4
YVRRRPRVRLEPLLS	4

Biological target: T11, Myo5, Q04439
T11 sequence (Q04439 1072-1160, looked up): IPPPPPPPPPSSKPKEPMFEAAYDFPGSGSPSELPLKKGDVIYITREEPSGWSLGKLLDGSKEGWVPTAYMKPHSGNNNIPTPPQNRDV
Assay: SPOT array
Details: median of control spots 471

Binder	SPOT intensity
NFKRLLPRDPSEKSS	0
LRWRHKFFLPAIAAI	0
YVRRRPRVRLEPLLS	1

Biological target: T12, Bzz1-2, P38822
T12 sequence (P38822 568-633, looked up): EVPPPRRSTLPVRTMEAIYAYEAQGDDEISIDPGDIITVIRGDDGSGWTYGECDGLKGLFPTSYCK
Assay: SPOT array
Details: median of control spots 4538

Binder	SPOT intensity
NFKRLLPRDPSEKSS	10
LRWRHKFFLPAIAAI	0
YVRRRPRVRLEPLLS	15

Biological target: Myo3, P36006
Assay: SPOT array
Details: median of control spots 468

Binder	SPOT intensity
NFKRLLPRDPSEKSS	6
LRWRHKFFLPAIAAI	0
YVRRRPRVRLEPLLS	5

Biological target: Sho1, P40073
Assay: SPOT array
Details: median of control spots 1148

Sho1, P40073, sequence (P40073 287-367): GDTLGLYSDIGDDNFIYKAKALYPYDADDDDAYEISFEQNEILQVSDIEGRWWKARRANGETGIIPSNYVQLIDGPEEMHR

Binder	SPOT intensity
NFKRLLPRDPSEKSS	51
LRWRHKFFLPAIAAI	9
YVRRRPRVRLEPLLS	102

Biological target: T13, Sla1-3, P32790
T13 sequence (P32790 344-424, looked up): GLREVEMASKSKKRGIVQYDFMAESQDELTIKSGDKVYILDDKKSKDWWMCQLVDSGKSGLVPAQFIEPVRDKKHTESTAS
Assay: SPOT array
Details: median of control spots 5475

Binder	SPOT intensity
NFKRLLPRDPSEKSS	156
LRWRHKFFLPAIAAI	24
YVRRRPRVRLEPLLS	44

Biological target: T14, Bzz1-1, P38822
T14 sequence (P38822 478-572, looked up): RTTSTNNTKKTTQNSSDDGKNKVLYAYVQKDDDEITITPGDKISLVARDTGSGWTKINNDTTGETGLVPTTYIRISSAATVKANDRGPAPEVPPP
Assay: SPOT array
Details: median of control spots 4446

Binder	SPOT intensity
NFKRLLPRDPSEKSS	1
LRWRHKFFLPAIAAI	1
YVRRRPRVRLEPLLS	0

Biological target: T15, Bud14, P27637
T15 sequence (P27637 247-328, looked up): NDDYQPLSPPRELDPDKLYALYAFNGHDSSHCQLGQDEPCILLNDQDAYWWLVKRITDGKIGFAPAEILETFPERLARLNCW
Assay: SPOT array
Details: median of control spots 956

Binder	SPOT intensity
NFKRLLPRDPSEKSS	12
LRWRHKFFLPAIAAI	10
YVRRRPRVRLEPLLS	26

Biological target: Bem1-1, P29366
Assay: SPOT array
Details: median of control spots 4282

Bem1-1, P29366, sequence (P29366 55-141): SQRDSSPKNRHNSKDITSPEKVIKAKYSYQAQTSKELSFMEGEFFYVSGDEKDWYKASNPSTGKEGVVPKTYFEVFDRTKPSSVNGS

Binder	SPOT intensity
NFKRLLPRDPSEKSS	0
LRWRHKFFLPAIAAI	0
YVRRRPRVRLEPLLS	0

Biological target: GST
Assay: SPOT array
Details: median of control spots 978

Binder	SPOT intensity
NFKRLLPRDPSEKSS	0
LRWRHKFFLPAIAAI	0
YVRRRPRVRLEPLLS	9

Biological target: T16, Hof1, Q05080
T16 sequence (Q05080 590-669, looked up): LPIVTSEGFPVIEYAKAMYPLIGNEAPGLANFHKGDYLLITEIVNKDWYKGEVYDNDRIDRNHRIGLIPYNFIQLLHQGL
Assay: SPOT array
Details: median of control spots 4086

Binder	SPOT intensity
NFKRLLPRDPSEKSS	15
LRWRHKFFLPAIAAI	0
YVRRRPRVRLEPLLS	20

Biological target: T17, Pin3, Q06449
T17 sequence (Q06449 53-122, looked up): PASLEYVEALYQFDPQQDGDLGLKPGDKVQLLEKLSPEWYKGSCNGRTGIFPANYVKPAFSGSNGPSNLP
Assay: SPOT array
Details: median of control spots 2171

Binder	SPOT intensity
NFKRLLPRDPSEKSS	7
LRWRHKFFLPAIAAI	4
YVRRRPRVRLEPLLS	2

Biological target: T18, Boi1, P38041
T18 sequence (P38041 1-86, looked up): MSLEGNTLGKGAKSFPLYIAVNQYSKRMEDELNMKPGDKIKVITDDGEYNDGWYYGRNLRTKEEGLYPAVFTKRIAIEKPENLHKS
Assay: SPOT array
Details: median of control spots 1162

Binder	SPOT intensity
NFKRLLPRDPSEKSS	4
LRWRHKFFLPAIAAI	1
YVRRRPRVRLEPLLS	13

Biological target: T19, Lsb3, P43603
T19 sequence (P43603 385-451, looked up): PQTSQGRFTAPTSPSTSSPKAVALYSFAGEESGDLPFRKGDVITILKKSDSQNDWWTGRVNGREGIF
Assay: SPOT array
Details: median of control spots 406

Binder	SPOT intensity
NFKRLLPRDPSEKSS	0
LRWRHKFFLPAIAAI	0
YVRRRPRVRLEPLLS	0

Biological target: T20, Nbp2, Q12163
T20 sequence (Q12163 103-180, looked up): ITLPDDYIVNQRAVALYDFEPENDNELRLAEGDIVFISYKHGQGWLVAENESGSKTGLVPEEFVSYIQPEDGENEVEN
Assay: SPOT array
Details: median of control spots 357

Binder	SPOT intensity
NFKRLLPRDPSEKSS	12
LRWRHKFFLPAIAAI	0
YVRRRPRVRLEPLLS	16

Biological target: Rvs167, P39743
Assay: SPOT array
Details: median of control spots 2707

Rvs167, P39743, sequence (P39743 419-482): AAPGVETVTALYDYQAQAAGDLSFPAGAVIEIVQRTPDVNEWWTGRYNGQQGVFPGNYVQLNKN

Binder	SPOT intensity
NFKRLLPRDPSEKSS	0
LRWRHKFFLPAIAAI	0
YVRRRPRVRLEPLLS	0

Biological target: T21, Boi2, P39969
T21 sequence (P39969 32-116, looked up): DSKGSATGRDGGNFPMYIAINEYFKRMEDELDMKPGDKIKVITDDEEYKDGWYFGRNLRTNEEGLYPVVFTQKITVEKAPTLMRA
Assay: SPOT array
Details: median of control spots 1161

Binder	SPOT intensity
NFKRLLPRDPSEKSS	2
LRWRHKFFLPAIAAI	0
YVRRRPRVRLEPLLS	17

Source: article PMC2756588
